The values below come from patent publication US20120329708A1 (INDIANA UNIVERSITY RESEARCH AND TECHNOLOGY, published 2012).

Common to all, as to assay: cell-based or functional assay
Assay [1] concerns the target GLP-1 receptor (HEK293 cells co-transfected with the GLP-1 receptor and a CRE-luciferase gene).
For assay [2], the target named is glucagon receptor (HEK293 cells co-transfected with the glucagon receptor and a CRE-luciferase gene).
Assay [3] concerns the target T1, GIP receptor (procedure of Example 3).
T1 sequence (P48546 whole entry, species assumed, looked up): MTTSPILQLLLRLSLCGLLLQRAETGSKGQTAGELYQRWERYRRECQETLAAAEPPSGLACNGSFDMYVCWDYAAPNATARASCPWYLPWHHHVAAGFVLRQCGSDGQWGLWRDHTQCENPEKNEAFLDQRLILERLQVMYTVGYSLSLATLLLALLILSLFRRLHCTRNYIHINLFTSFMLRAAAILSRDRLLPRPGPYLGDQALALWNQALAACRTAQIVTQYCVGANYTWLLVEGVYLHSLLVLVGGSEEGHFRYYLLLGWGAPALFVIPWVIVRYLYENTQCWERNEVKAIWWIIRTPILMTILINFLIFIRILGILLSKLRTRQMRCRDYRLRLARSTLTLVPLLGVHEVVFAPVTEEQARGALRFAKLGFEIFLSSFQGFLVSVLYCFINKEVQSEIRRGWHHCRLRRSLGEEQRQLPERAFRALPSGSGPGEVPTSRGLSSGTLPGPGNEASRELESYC

The target in assay [4] is human GLP-1R (CHO-K1 cells stably expressing human GLP-1R) (human, UniProt P43220 24-463).
The target in assay [5] is T2, human GIPR (CHO-K1 cells stably expressing human GIPR) (human, UniProt P48546 22-466).
T2 sequence (looked up): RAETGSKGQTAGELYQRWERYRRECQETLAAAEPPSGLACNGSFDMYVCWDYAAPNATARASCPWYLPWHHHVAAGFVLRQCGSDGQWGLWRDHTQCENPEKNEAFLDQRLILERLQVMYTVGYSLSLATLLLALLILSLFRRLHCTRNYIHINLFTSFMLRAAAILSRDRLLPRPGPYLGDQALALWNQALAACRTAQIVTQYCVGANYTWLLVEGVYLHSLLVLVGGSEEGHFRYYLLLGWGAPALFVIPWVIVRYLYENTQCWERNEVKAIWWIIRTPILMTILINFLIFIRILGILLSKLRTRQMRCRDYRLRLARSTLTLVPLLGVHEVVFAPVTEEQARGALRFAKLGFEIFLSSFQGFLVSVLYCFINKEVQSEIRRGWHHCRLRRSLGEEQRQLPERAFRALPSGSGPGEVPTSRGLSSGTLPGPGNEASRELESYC

Assay [6] concerns the target human GCGR (CHO-K1 cells stably expressing human GCGR) (human, UniProt P47871 26-477).

*1 amine or outer side, *2 acyl side, *3 side chain or, on linkers, in order; H or OH if unused. Where no end group is shown, it is not given here. Side-chain parts run from the residue outwards. [ ]: non-standard residue; d: D form. The star is where a group is joined. 40K‑TE PEG = 40 kDa PEG attached to Cys by thioether; γGlu = O=C(O)[C@H](CCC(=O)[*:2])N[*:1]; Palmitoyl = CCCCCCCCCCCCCCCC(=O)*; Morn = not defined here; Aib = CC(C)(N)C(=O)O

human GCGR (CHO-K1 cells stably expressing human GCGR), sequence (P47871 26-477): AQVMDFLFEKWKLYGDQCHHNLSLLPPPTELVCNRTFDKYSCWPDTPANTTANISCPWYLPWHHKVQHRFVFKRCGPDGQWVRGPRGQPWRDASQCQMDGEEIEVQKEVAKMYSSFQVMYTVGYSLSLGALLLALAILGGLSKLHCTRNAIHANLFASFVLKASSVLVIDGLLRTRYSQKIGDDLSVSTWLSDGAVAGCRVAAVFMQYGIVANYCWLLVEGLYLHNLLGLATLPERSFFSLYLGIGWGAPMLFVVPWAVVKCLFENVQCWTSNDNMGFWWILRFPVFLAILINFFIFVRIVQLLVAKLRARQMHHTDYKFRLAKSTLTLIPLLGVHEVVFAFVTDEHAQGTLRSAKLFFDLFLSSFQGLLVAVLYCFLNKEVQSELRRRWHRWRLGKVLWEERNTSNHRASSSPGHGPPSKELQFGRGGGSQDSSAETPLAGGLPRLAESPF

As to H[Aib]QGTFTSDYSKYLDERRA[Aib]EFVC(40K‑TE PEG)WLLDTK[γGlu]-NH2 [peptide of SEQ ID NO: 13], in assay [1], the “EC50 (nM) at GLP-1 receptor (cAMP-induced luciferase reporter, HEK293)” value turned out to be 0.567 nM. Besides, the “EC50 (nM) at glucagon receptor (cAMP-induced luciferase reporter, HEK293)” value in assay [2] is 2.81 nM. Moreover, in assay [3], the “EC50 (nM) at GIP receptor (procedure of Example 3)” value (from here on “EC50 … (procedure of Example 3)”) was 140 nM.

B1: peptide of SEQ ID NO: 17 (peptide)
peptide: H[Aib]QGTFTSDK([γGlu-γGlu-Palmitoyl])SKYLD[Aib]RAAQDFVQWLMNTK[γGlu]-NH2
modifications: N-terminus assumed
SMILES: CCCCCCCCCCCCCCCC(=O)N[C@@H](CCC(=O)N[C@@H](CCC(=O)NCCCC[C@H](NC(=O)[C@H](CC(=O)O)NC(=O)[C@H](CO)NC(=O)[C@@H](NC(=O)[C@H](Cc1ccccc1)NC(=O)[C@@H](NC(=O)CNC(=O)[C@H](CCC(N)=O)NC(=O)C(C)(C)NC(=O)[C@@H](N)Cc1c[nH]cn1)[C@@H](C)O)[C@@H](C)O)C(=O)N[C@@H](CO)C(=O)N[C@@H](CCCCN)C(=O)N[C@@H](Cc1ccc(O)cc1)C(=O)N[C@@H](CC(C)C)C(=O)N[C@@H](CC(=O)O)C(=O)NC(C)(C)C(=O)N[C@@H](CCCNC(=N)N)C(=O)N[C@@H](C)C(=O)N[C@@H](C)C(=O)N[C@@H](CCC(N)=O)C(=O)N[C@@H](CC(=O)O)C(=O)N[C@@H](Cc1ccccc1)C(=O)N[C@H](C(=O)N[C@@H](CCC(N)=O)C(=O)N[C@@H](Cc1c[nH]c2ccccc12)C(=O)N[C@@H](CC(C)C)C(=O)N[C@@H](CCSC)C(=O)N[C@@H](CC(N)=O)C(=O)N[C@H](C(=O)N[C@@H](CCCCN)C(=O)N[C@@H](CCC(N)=O)C(=O)O)[C@@H](C)O)C(C)C)C(=O)O)C(=O)O
On to B1, for which, in assay [4], the “EC50 (nM) at GLP-1 receptor (cAMP production, DiscoveRx Hithunter cAMP XS+, CHO-K1)” value was 0.075 nM. The “EC50 (nM) at GIP receptor (cAMP production, DiscoveRx Hithunter cAMP XS+, CHO-K1)” value in assay [5] is greater than 2000 nM. Also, the “EC50 (nM) at glucagon receptor (cAMP production, DiscoveRx Hithunter cAMP XS+, CHO-K1)” value in assay [6] is 0.11 nM.

B2: peptide of SEQ ID NO: 15 (peptide)
peptide: H[Aib]QGTFTSDK([γGlu-γGlu-Palmitoyl])SKYLD[Aib]RAAQDFVQWL[Morn]DTKQ-OH
modifications: not fully specified; printed as HaibQGTFTSDK(γGlu-γGlu-C16)SKYLDaibRAAQDFVQWLMornDTKQ-acid; reading uncertain
For B2, in assay [1], the “EC50 (nM) at GLP-1 receptor (cAMP-induced luciferase reporter, HEK293)” value turned out to be 0.005 nM. Further, the “EC50 (nM) at glucagon receptor (cAMP-induced luciferase reporter, HEK293)” value in assay [2] was 0.006 nM. Moreover, in assay [3], the “EC50 … (procedure of Example 3)” value was 1.9 nM.

B3: peptide of SEQ ID NO: 16 (peptide)
peptide: H[Aib]QGTFTSDK([γGlu-γGlu-Palmitoyl])SKYLD[Aib]RAAQDFVQWLLDTKQ-OH
modifications: N-terminus assumed
SMILES: CCCCCCCCCCCCCCCC(=O)N[C@@H](CCC(=O)N[C@@H](CCC(=O)NCCCC[C@H](NC(=O)[C@H](CC(=O)O)NC(=O)[C@H](CO)NC(=O)[C@@H](NC(=O)[C@H](Cc1ccccc1)NC(=O)[C@@H](NC(=O)CNC(=O)[C@H](CCC(N)=O)NC(=O)C(C)(C)NC(=O)[C@@H](N)Cc1c[nH]cn1)[C@@H](C)O)[C@@H](C)O)C(=O)N[C@@H](CO)C(=O)N[C@@H](CCCCN)C(=O)N[C@@H](Cc1ccc(O)cc1)C(=O)N[C@@H](CC(C)C)C(=O)N[C@@H](CC(=O)O)C(=O)NC(C)(C)C(=O)N[C@@H](CCCNC(=N)N)C(=O)N[C@@H](C)C(=O)N[C@@H](C)C(=O)N[C@@H](CCC(N)=O)C(=O)N[C@@H](CC(=O)O)C(=O)N[C@@H](Cc1ccccc1)C(=O)N[C@H](C(=O)N[C@@H](CCC(N)=O)C(=O)N[C@@H](Cc1c[nH]c2ccccc12)C(=O)N[C@@H](CC(C)C)C(=O)N[C@@H](CC(C)C)C(=O)N[C@@H](CC(=O)O)C(=O)N[C@H](C(=O)N[C@@H](CCCCN)C(=O)N[C@@H](CCC(N)=O)C(=O)O)[C@@H](C)O)C(C)C)C(=O)O)C(=O)O
For the molecule B3, in assay [1], the “EC50 (nM) at GLP-1 receptor (cAMP-induced luciferase reporter, HEK293)” value was 0.019 nM. Besides, in assay [2], the “EC50 (nM) at glucagon receptor (cAMP-induced luciferase reporter, HEK293)” value was 0.015 nM. For the same molecule, the “EC50 … (procedure of Example 3)” value in assay [3] is 1.04 nM.
Take H[Aib]QGTFTSDK([γGlu-γGlu-Palmitoyl])SKYLD[Aib]RAAQDFVQWLMDTK[γGlu]-NH2 [peptide of SEQ ID NO: 12]: the “EC50 (nM) at GLP-1 receptor (cAMP-induced luciferase reporter, HEK293)” value in assay [1] was 0.003 nM. Also, in assay [2], the “EC50 (nM) at glucagon receptor (cAMP-induced luciferase reporter, HEK293)” value worked out at 0.01 nM. Further, in assay [3], the “EC50 … (procedure of Example 3)” value worked out at 12.8 nM.

B4: peptide of SEQ ID NO: 14 (peptide)
peptide: HSQGTFTSDKSKYLDERAAQDFVQWLLDTKX
modifications: s at position 2 (lower case, presumably D-Ser); K(γGlu-C16) at position 10 (Lys acylated with C16 via γGlu spacer); C-terminal γGlu; C-terminal amide
On to B4, for which the “EC50 (nM) at GLP-1 receptor (cAMP-induced luciferase reporter, HEK293)” value in assay [1] turned out to be 0.003 nM. Further, the “EC50 (nM) at glucagon receptor (cAMP-induced luciferase reporter, HEK293)” value in assay [2] was 0.003 nM. Also, the “EC50 … (procedure of Example 3)” value in assay [3] was 976 nM.
